Assay results published in paper PMC5148066.
Where two headings read alike, the source gives them in different places.

Experiments:
[1] = target: Bovine papular stomatitis virus chemokine-binding protein (Bovine papular stomatitis virus); test: SPR; BPSV-CBP immobilised on a CM5 chip (~500 RU, amine coupling, 10 mM sodium acetate pH 4.5); serial dilutions of mouse chemokines in HBS-EP pH 7.4 flowed in triplicate, 3 min association, 10 min dissociation, 25°C, Biacore X100; global fit, 1:1 binding model
[2] = target: Bovine papular stomatitis virus chemokine-binding protein (Bovine papular stomatitis virus (strain V660 named for the sequence analysis)); test: SEC-MALS; purified BPSV-CBP in solution, three concentrations (2, 1, 0.05 mg/ml)
[3] = target: Bovine papular stomatitis virus chemokine-binding protein (Bovine papular stomatitis virus); test: SPR; BPSV-CBP immobilised on a CM5 chip (~500 RU, amine coupling, 10 mM sodium acetate pH 4.5); serial dilutions of mouse chemokines in HBS-EP pH 7.4 flowed in triplicate, 3 min association, 10 min dissociation, 25°C, Biacore X100; global fit, 1:1 binding model; remark: listed apart in the source
[4] = target: Bovine papular stomatitis virus chemokine-binding protein (Bovine papular stomatitis virus (strain V660 named for the sequence analysis)); test: SPR; BPSV-CBP immobilised on a CM5 chip (~500 RU) by amine coupling; serial dilutions of mouse chemokines in HBS-EP (20 mM HEPES, 150 mM NaCl, 3.4 mM EDTA, 0.005% Polysorbate 20, pH 7.4) run in triplicate, 3 min association, 10 min dissociation; 25°C, Biacore X100; global fit with a 1:1 binding model

## mouse CCL21 (from UniProt P84444 24-133) (ligand)
[1]
  Kd: 0.385 nM
  koff: 0.00296 s⁻¹
  kon: 7.68e+06 M⁻¹ s⁻¹

## mouse CCL2 (from UniProt P10148 24-148) (ligand)
[1]
  Kd: 0.186 nM
  koff: 0.00022 s⁻¹
  kon: 1.18e+06 M⁻¹ s⁻¹

## Bovine papular stomatitis virus chemokine-binding protein (natural protein)
[2]
  stoichiometry N: 2

B1: mouse CCL19 (ligand)
chain: GANDAEDCCLSVTQRPIPGNIVKAFRYLLNEDGCRVPAVVFTTLRGYQLCAPPDQPWVDRIIRRLKKSSAKNKGNSTRRSPVS
[3]
  Kd: 0.00146 nM
  kon: 1.37e+07 M⁻¹ s⁻¹
[4]
  koff: 2e-05 s⁻¹

B2: mouse CXCL4 (ligand)
chain: VTSAGPEESDGDLSCVCVKTISSGIHLKHITSLEVIKAGRHCAVPQLIATLKNGRKICLDRQAPLYKKVIKKILES
[3]
  Kd: 2.32 nM
  koff: 0.00234 s⁻¹
  kon: 1.01e+06 M⁻¹ s⁻¹
[4]
  Kd: 2.3 nM

B3: mouse CXCL2 (ligand)
chain: AVVASELRCQCLKTLPRVDFKNIQSLSVTPPGPHCAQTEVIATLKGGQKVCLDPEAPLVQKIIQKILNKGKAN
[3]
  koff: 0.00056 s⁻¹
  kon: 770000 M⁻¹ s⁻¹
[4]
  Kd: 0.725 nM
  koff: 0.0006 s⁻¹

B4: mouse CCL3 (ligand)
chain: APYGADTPTACCFSYSRKIPRQFIVDYFETSSLCSQPGVIFLTKRNRQICADSKETWVQEYITDLELNA
[3]
  Kd: 0.13 nM
  koff: 0.00023 s⁻¹
  kon: 1.76e+06 M⁻¹ s⁻¹

B5: mouse XCL1 (ligand)
chain: VGTEVLEESSCVNLQTQRLPVQKIKTYIIWEGAMRAVIFVTKRGLKICADPEAKWVKAAIKTVDGRASTRKNMAETVPTGAQRSTSTAITLTG
[3]
  Kd: 1.36 nM
  koff: 0.00135 s⁻¹
  kon: 990000 M⁻¹ s⁻¹
[4]
  Kd: 1.4 nM
  koff: 0.0014 s⁻¹
  kon: 1e+06 M⁻¹ s⁻¹

B6: mouse CXCL1 (ligand)
chain: APIANELRCQCLQTMAGIHLKNIQSLKVLPSGPHCTQTEVIATLKNGREACLDPEAPLVQKIVQKMLKGVPK
[3]
  Kd: 4.33 nM
  koff: 0.00316 s⁻¹
  kon: 730000 M⁻¹ s⁻¹
[4]
  Kd: 4.3 nM
